{"source": "patent US20210139579A1", "about": "(published 2021)", "binders": {"B1": {"name": "XBR1-402 chimeric rabbit/human Fab (Fab, V domains shown)", "VH": "QEQQKESGGGLFKPTDTLTLTCTASGFDISSYYMSWVRQAPGNGLEWIGAIGISGNAYYASWAKSRSTITRNTNLNTVTLKMTSLTAADTATYFCARDHPTYGMDLWGPGTLVTVSS", "VL": "SYELTQLPSVSVSLGQTARITCEGNNIGSKAVHWYQQKPGLAPGLLIYDDDERPSGVPDRFSGSNSGDTATLTISGAQAGDEADYYCQVWDSSAYVFGGGTQLTVTG"}, "B2": {"name": "ERR1-403 chimeric rabbit/human Fab (Fab, V domains shown)", "VH": "QEQLKESGRGLVQPGGSLKLSCKASGFDFSGWYMTWVRQAPGKGLEWIGTIGTTKGRTYYASWVNGRFTISSDNAQNTVDLQMNSLTAADRATYFCVRGSDYFDLWGPGTLVTISS", "VL": "SYELTQLPSVSVSLGQTARITCGGNSIGSKAVNWYQQKPGLAPGLLIYDDDERPSGVPARFSGSNSGDTATLTISGAQAGDEADYYCQLWDSSAGAYVFGGGTQLTVTG"}, "B3": {"name": "ERR1-TOP43 chimeric rabbit/human Fab (Fab, V domains shown)", "VH": "QSLEESGGRLVTPGTPLTLTCTVSGFSLSSYWMSWVRQAPGKGLEWIGAIYGSGNTYYASWAKGRFTISKTSTTVDLKITSPTTEDTATYFCARDVHSTATDLWGPGTLVTISS", "VL": "B2 VL with S26N, D49N, A59D"}, "B4": {"name": "ERR1-301 chimeric rabbit/human Fab (Fab, V domains shown)", "VH": "QEQLEESGGGLVTPGGSLTLTCTASGFTISTYHMSWVRQAPGKGLEWIGSIYAGSGSTYYASWVNGRFTISSNTTQNTVSLQMNSLTVADTATYFCARDHPSYGMDLWGPGTLVTVSS", "VL": "B2 VL with A59D, G63A, G80E, G95V"}}, "molecular_target": "hFc-hROR1 (fusion protein of the extracellular domain of human ROR1 and the Fc domain of human IgG1) (human, UniProt P01857 99-330 = IgG part)", "sequence (P01857 other isoform, or with tags, fused parts or gaps)": "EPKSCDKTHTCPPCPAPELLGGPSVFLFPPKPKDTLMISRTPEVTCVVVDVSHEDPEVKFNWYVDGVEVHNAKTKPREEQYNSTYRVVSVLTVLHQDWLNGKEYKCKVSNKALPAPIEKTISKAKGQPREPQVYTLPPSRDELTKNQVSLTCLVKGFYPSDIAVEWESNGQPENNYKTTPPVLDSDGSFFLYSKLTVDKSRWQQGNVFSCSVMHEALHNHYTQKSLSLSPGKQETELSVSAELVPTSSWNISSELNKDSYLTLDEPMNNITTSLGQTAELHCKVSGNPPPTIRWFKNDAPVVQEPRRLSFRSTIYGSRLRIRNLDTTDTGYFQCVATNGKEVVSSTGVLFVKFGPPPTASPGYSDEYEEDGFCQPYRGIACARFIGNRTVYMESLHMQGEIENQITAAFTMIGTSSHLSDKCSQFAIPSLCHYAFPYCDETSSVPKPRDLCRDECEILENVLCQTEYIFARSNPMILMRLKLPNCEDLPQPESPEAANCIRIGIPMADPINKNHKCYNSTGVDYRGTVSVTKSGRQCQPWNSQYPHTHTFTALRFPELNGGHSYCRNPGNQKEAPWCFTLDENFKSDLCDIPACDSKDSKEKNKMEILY", "assay": "SPR", "note": "Substitutions are numbered along the chain they refer to.", "data": [{"binder": "B1", "values": [{"measurement": "Kd", "result": 5.81, "unit": "nM"}]}, {"binder": "B2", "values": [{"measurement": "Kd", "result": 41.6, "unit": "nM"}]}, {"binder": "B3", "values": [{"measurement": "Kd", "result": 1.11, "unit": "nM"}]}, {"binder": "B4", "values": [{"measurement": "Kd", "result": 118, "unit": "nM"}]}]}
